This passage reports stoichiometry N results from article PMC4807065.

What is called stoichiometry N is the number of molecules, sites or subunits per partner or assembly.

This assay addresses large catalase (CAT) from Aspergillus terreus MTCC 6324 (Aspergillus terreus MTCC 6324). Nature of the assay: SEC; HiPrep Sephacryl S-300 HR column, 50 mM sodium phosphate buffer pH 7.5; native mass against gel filtration standards (29-669 kDa), compared with the subunit mass from SDS-PAGE. In general terms: Size exclusion chromatography separates by hydrodynamic size, large species first.

As for “large catalase (CAT) from Aspergillus terreus MTCC 6324 (enzyme)”, the stoichiometry N worked out at 4.
